Results taken from US7657380.
Positions count from the first letter of the chain named.

T1: human CD30 (commercial, conjugated to digoxigenin) (human, UniProt P28908 19-379, limits assumed, conjugated to digoxigenin (DIG))
T1 sequence (looked up): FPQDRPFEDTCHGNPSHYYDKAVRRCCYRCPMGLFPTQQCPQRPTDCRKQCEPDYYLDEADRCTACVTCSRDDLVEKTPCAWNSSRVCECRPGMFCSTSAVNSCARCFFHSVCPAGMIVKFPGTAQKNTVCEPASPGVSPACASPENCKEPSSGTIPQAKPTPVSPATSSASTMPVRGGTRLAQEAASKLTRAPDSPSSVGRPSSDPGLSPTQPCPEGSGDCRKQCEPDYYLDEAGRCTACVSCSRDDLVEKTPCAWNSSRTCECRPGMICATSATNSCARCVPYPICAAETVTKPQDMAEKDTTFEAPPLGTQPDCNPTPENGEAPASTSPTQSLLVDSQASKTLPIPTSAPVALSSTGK

B1: AC10 H3.1/L3 (antibody, IgG1, name in Kabat numbering, V domains shown)
VH: EIQLVQSGPEVKKPGASVKVSCKASGYTFTDYYITWVRQAPGQGLEWMGWIYPGSGNTKYNEKFQGRFVFSVDTSASTAYLQISSLKAEDTAVYFCANYGNYWFAYWGQGTLVTVSS
VL: DIVLTQSPDSLAVSLGERATINCKASQSVDFDGDSYMNWYQQKPGQPPKVLIYAASNLESGIPARFSGSGSGTDFTLTINSLEAEDAATYYCQQSNEDPWTFGGGTKVEIK
B2: AC10 H3.16/L3 (antibody, IgG1, name in Kabat numbering, V domains shown)
VH: B1 VH with E1Q, T35G
VL: B1 VL
B3: AC10 H3.13/L3 (antibody, IgG1, name in Kabat numbering, V domains shown)
VH: B1 VH with E1Q, I34L
VL: B1 VL
B4: AC10 H3.28/L3 (antibody, IgG1, name in Kabat numbering, V domains shown)
VH: B1 VH with E1Q, P53V
VL: B1 VL
B5: AC10 H3.8/L3 (antibody, IgG1, name in Kabat numbering, V domains shown)
VH: B1 VH with E1Q, D31G
VL: B1 VL
B6: AC10 H3.37/L3 (antibody, IgG1, name in Kabat numbering, V domains shown)
VH: B1 VH with E1Q, N61T
VL: B1 VL
B7: AC10 H3.6/L3 (antibody, IgG1, name in Kabat numbering, V domains shown)
VH: B1 VH with E1Q, A16T
VL: B1 VL
B8: AC10 H3.23/L3 (antibody, IgG1, name in Kabat numbering, V domains shown)
VH: B1 VH with E1Q, W50R
VL: B1 VL
B9: AC10 H3.11/L3 (antibody, IgG1, name in Kabat numbering, V domains shown)
VH: B1 VH with E1Q, Y33G
VL: B1 VL
B10: AC10 H3.3/L3 (antibody, IgG1, name in Kabat numbering, V domains shown)
VH: B1 VH with E1Q, I2M
VL: B1 VL
B11: AC10 H3.32/L3 (antibody, IgG1, name in Kabat numbering, V domains shown)
VH: B1 VH with E1Q, K59I
VL: B1 VL
B12: AC10 H3.24/L3 (antibody, IgG1, name in Kabat numbering, V domains shown)
VH: B1 VH with E1Q, Y52N
VL: B1 VL
B13: AC10 H3.36/L3 (antibody, IgG1, name in Kabat numbering, V domains shown)
VH: B1 VH with E1Q, N61S
VL: B1 VL
B14: AC10 H3.22/L3 (antibody, IgG1, name in Kabat numbering, V domains shown)
VH: B1 VH with E1Q, W50I
VL: B1 VL
B15: AC10 H3.29/L3 (antibody, IgG1, name in Kabat numbering, V domains shown)
VH: B1 VH with E1Q, S55D
VL: B1 VL
B16: AC10 H3.5/L3 (antibody, IgG1, name in Kabat numbering, V domains shown)
VH: B1 VH with E1Q, P9A
VL: B1 VL
B17: AC10 H3.38/L3 (antibody, IgG1, name in Kabat numbering, V domains shown)
VH: B1 VH with E1Q, N61V
VL: B1 VL
B18: AC10 H3.14/L3 (antibody, IgG1, name in Kabat numbering, V domains shown)
VH: B1 VH with E1Q, I34M
VL: B1 VL
B19: AC10 H3.30/L3 (antibody, IgG1, name in Kabat numbering, V domains shown)
VH: B1 VH with E1Q, S55N
VL: B1 VL
B20: AC10 H3.34/L3 (antibody, IgG1, name in Kabat numbering, V domains shown)
VH: B1 VH with E1Q, N61A
VL: B1 VL
B21: AC10 H3.18/L3 (antibody, IgG1, name in Kabat numbering, V domains shown)
VH: B1 VH with E1Q, T35N
VL: B1 VL
B22: AC10 H3.19/L3 (antibody, IgG1, name in Kabat numbering, V domains shown)
VH: B1 VH with E1Q, T35S
VL: B1 VL
B23: AC10 H3.2/L3 (antibody, IgG1, name in Kabat numbering, V domains shown)
VH: B1 VH with E1Q, I2L
VL: B1 VL
B24: AC10 H3.33/L3 (antibody, IgG1, name in Kabat numbering, V domains shown)
VH: B1 VH with E1Q, K59N
VL: B1 VL
B25: AC10 H3.9/L3 (antibody, IgG1, name in Kabat numbering, V domains shown)
VH: B1 VH with E1Q, D31S
VL: B1 VL
B26: AC10 H3.27/L3 (antibody, IgG1, name in Kabat numbering, V domains shown)
VH: B1 VH with E1Q, P53A
VL: B1 VL
B27: AC10 H3.17/L3 (antibody, IgG1, name in Kabat numbering, V domains shown)
VH: B1 VH with E1Q, T35H
VL: B1 VL
B28: AC10 H3.4/L3 (antibody, IgG1, name in Kabat numbering, V domains shown)
VH: B1 VH with E1Q, I2V
VL: B1 VL
B29: AC10 H3.39/L3 (antibody, IgG1, name in Kabat numbering, V domains shown)
VH: B1 VH with E1Q, N61D
VL: B1 VL
B30: AC10 H3.21/L3 (antibody, IgG1, name in Kabat numbering, V domains shown)
VH: B1 VH with E1Q, G44R
VL: B1 VL
B31: AC10 H3.12/L3 (antibody, IgG1, name in Kabat numbering, V domains shown)
VH: B1 VH with E1Q, Y33W
VL: B1 VL
B32: AC10 H3.40/L3 (antibody, IgG1, name in Kabat numbering, V domains shown)
VH: B1 VH with E1Q, E62Q
VL: B1 VL
B33: AC10 H3.20/L3 (antibody, IgG1, name in Kabat numbering, V domains shown)
VH: B1 VH with E1Q, G44A
VL: B1 VL
B34: AC10 H3.7/L3 (antibody, IgG1, name in Kabat numbering, V domains shown)
VH: B1 VH with E1Q, A24V
VL: B1 VL

molecular target: T1, human CD30 (commercial, conjugated to …); assay: AlphaScreen competition

| Binder | Fold IC50 vs H3/L3 [fold] |
| --- | --- |
| B1 | 1 |
| B2 | 0.15 |
| B3 | 1.52 |
| B4 | 1.34 |
| B5 | 1.4 |
| B6 | 1.01 |
| B7 | 1.13 |
| B8 | 0.16 |
| B9 | 0.73 |
| B10 | 0.68 |
| B11 | 1.09 |
| B12 | 0.03 |
| B13 | 1.24 |
| B14 | 0.01 |
| B15 | 1.81 |
| B16 | 1.29 |
| B17 | 1.14 |

| Binder | Fold IC50 vs H3/L3 [fold] |
| --- | --- |
| B18 | 1.62 |
| B19 | 1.45 |
| B20 | 1.3 |
| B21 | 0.13 |
| B22 | 1.11 |
| B23 | 2.76 |
| B24 | 0.5 |
| B25 | 1.65 |
| B26 | 2 |
| B27 | 0.04 |
| B28 | 1.28 |
| B29 | 1 |
| B30 | 2.6 |
| B31 | 0 |
| B32 | 1.83 |
| B33 | 2.04 |
| B34 | 4.45 |
